Test results: patent publication US20080292632A1 (US Dept. of Health and Human Services, published 2008)

How the values were obtained:
Assay in all cases: IRTA Fc-fusion
[1] = target: T1, IRTA1 extracellular domain-Fc fusion protein (human, UniProt Q96PJ5 20-387)
T1 construct: Whole entry named; also called IRTA1-Fc; IRTA1 (Fc-fusion); not shown: human IgG1 hinge and Fc
T1 sequence: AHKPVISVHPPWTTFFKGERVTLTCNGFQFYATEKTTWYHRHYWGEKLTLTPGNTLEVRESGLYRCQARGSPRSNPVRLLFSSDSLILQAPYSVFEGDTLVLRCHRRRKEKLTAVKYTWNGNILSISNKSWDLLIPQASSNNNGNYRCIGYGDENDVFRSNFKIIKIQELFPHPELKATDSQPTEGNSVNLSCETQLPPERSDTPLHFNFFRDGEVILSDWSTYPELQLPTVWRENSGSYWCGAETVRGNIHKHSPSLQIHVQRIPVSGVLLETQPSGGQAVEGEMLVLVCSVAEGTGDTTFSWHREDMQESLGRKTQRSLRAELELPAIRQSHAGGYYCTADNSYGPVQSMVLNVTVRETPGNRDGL
Procedure: (§1) Each Fc-fusion protein indicated on the top of the column was captured on ELISA plates using secondary antibody (goat anti-human IgG). After washing, 100 ng/50 μl/well of MAbs were added, followed by HRP-labeled goat anti-mouse IgG and TMBZ substrate. The signals in ELISA were normalized for the amounts of each Fc-fusion protein on the plates using HRP-goat anti-human Fc. The controls are MAbs 9E10 (anti-myc tag, IgG1), BerH2 (anti-CD30, IgG1), T408 (anti-CD30, IgG2a), T420 (anti-CD30, IgG2b) and HRP-goat anti-human Fc (1/2400 dilution). […] Two days after transfection, the cells were harvested and incubated with 200 ng/100 μl of each MAb, followed by PE-conjugated goat anti-mouse IgG F(ab′)2. […] In the positive control panels, the MAbs cross-reactive to other IRTAs were used. They are F26 (anti-IRTA1 and anti-IRTA2, IgG2b), F109 (anti-IRTA3, IgG2b), F47 (anti-IRTA4, IgG2a), and F69 (anti-IRTA5, IgG2a). BerH2 (anti-CD30, IgG1) was also used. “+” indicates more than 1.5-fold than that of the control; “++” indicates more than 10-fold mean fluorescence intensity than that of the negative control.
(§2) ELISA. In a typical indirect ELISA for the screening of hybridomas, microtiter plates (MaxiSorp; Nalge Nunc, Rochester, N.Y.) were coated with 100 ng/50 μl/well of goat anti-human IgG in phosphate buffered saline (PBS) for 2 hours at room temperature. Next, 50 ng/100 μl/well of IRTA2-Fc in blocking buffer (25% DMEM, 5% FBS, 25 mM HEPES, 0.5% bovine serum albumin, 0.1% sodium azide in PBS) was added to each well and incubated for 2 hours at room temperature. After washing with PBS containing 0.05% Tween 20, 50 μl of the hybridoma supernatants were added and incubated for 2 hours at room temperature. After washing, the bound MAbs were detected by a 2-hour incubation with horseradish peroxidase (HRP)-labeled goat anti-mouse IgG (Jackson ImmunoResearch, Grove, Pa.) followed by tetramethylbenzidine (TMB) substrate kit (Pierce, Rockford, Ill.). In some experiments, other IRTA-Fc fusion proteins were used instead of IRTA2-Fc.

[2] = target: T2, IRTA3 extracellular domain-Fc fusion protein (human, UniProt Q96P31 18-573)
T2 construct: Whole entry named; also called IRTA3-Fc; IRTA3 (Fc-fusion); not shown: human IgG1 hinge and Fc
T2 sequence: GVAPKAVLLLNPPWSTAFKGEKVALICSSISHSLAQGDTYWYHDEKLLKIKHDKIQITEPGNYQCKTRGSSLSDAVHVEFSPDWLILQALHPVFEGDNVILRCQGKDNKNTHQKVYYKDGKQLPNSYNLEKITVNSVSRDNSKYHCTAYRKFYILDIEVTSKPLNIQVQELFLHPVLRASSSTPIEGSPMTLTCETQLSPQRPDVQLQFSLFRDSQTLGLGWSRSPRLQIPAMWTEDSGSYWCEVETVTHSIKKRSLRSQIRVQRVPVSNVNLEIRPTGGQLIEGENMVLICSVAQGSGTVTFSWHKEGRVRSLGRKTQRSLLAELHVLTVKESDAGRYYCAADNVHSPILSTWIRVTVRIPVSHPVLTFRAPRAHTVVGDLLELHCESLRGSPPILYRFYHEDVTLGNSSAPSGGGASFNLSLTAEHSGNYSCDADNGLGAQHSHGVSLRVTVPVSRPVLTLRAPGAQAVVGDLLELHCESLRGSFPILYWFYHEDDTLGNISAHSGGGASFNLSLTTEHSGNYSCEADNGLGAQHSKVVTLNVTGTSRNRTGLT
Procedure: as §1, §2

[3] = target: T3, IRTA5 extracellular domain-Fc fusion protein (human, UniProt Q96LA6 17-307)
T3 construct: Whole entry named; also called IRTA5-Fc; IRTA5 (Fc-fusion); not shown: human IgG1 hinge and Fc
T3 sequence: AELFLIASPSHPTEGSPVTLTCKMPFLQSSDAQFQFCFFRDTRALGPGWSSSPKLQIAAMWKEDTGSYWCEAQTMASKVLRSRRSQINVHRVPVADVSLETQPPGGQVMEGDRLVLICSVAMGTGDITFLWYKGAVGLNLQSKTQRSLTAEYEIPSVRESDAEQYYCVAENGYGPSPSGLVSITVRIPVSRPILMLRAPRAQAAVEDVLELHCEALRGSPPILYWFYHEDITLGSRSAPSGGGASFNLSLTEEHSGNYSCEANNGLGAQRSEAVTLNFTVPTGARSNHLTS
Procedure: as §1, §2

binding result [1]: no binding | binding result [2]: no binding | binding result [3]: no binding
B1: F25 (antibody, IgG2a, V domains shown)
VH: EVQLQQSGPELVKPGTSVKMSCKASGYSFTGYFMNWMMQNHGKSLEWIGRINLYNGDTFYNQKFKDKATLTVDKSSNTVHMEFRSLASEDSAVYYCASSLYYFDYWGQGTTFTVSS
VL: DIVMTQSHKFMSTSVGDRVNITCKASQDVGTNVAWYQQKPGQSPKLLIYWASTRQTGVPDRFTGSGSGTDFTLTISNVQSEDLSDYFCQQYSSYPLTFGAGTKLELKR
notes: mouse hybridoma MAb, IgG2a, kappa; also called MAb F25; biotin-MAb F25
